Here are results for one variant from IntAct's records for PubMed 23112296.

B1: Keratin, type I cytoskeletal 18 (Homo sapiens), P05783 (parent)
chain: MSFTTRSTFSTNYRSLGSVQAPSYGARPVSSAASVYAGAGGSGSRISVSRSTSFRGGMGSGGLATGIAGGLAGMGGIQNEKETMQSLNDRLASYLDRVRSLETENRRLESKIREHLEKKGPQVRDWSHYFKIIEDLRAQIFANTVDNARIVLQIDNARLAADDFRVKYETELAMRQSVENDIHGLRKVIDDTNITRLQLETEIEALKEELLFMKKNHEEEVKGLQAQIASSGLTVEVDAPKSQDLAKIMADIRAQYDELARKNREELDKYWSQQIEESTTVVTTQSAEVGAAETTLTELRRTVQSLEIDLDSMRNLKASLENSLREVEARYALQMEQLNGILLHLESELAQTRAEGQRQAQEYEALLNIKVKLEAEIATYRRLLEDGEDFNLGDALDSSNSMQTIQKTTTRRIVDGKVVSETNDTKVLRH

Variants of B1 are the subject of the assay. As to conditions: with becn1_human BECN1, Q14457.
Sequence of becn1_human BECN1, Q14457 (Q14457 whole entry): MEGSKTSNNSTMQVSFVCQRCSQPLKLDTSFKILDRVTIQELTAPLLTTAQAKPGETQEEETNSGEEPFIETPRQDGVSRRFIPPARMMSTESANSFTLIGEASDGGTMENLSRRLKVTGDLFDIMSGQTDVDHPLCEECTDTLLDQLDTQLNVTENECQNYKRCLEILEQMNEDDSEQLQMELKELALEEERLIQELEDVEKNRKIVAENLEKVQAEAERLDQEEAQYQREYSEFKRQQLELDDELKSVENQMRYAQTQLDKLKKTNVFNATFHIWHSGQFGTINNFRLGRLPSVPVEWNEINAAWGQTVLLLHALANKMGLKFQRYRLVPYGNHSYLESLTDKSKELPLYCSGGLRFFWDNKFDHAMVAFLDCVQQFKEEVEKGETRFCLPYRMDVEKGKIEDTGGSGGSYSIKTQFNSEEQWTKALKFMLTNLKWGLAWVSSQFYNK
In the case of MSFTTRSTFSTNYRSLGSVQAPSYGARPVSSAAAVYAGAGGSGSRISVSRSTSFRGGMGSGGLATGIAGGLAGMGGIQNEKETMQSLNDRLASYLDRVRSLETENRRLESKIREHLEKKGPQVRDWSHYFKIIEDLRAQIFANTVDNARIVLQIDNARLAADDFRVKYETELAMRQSVENDIHGLRKVIDDTNITRLQLETEIEALKEELLFMKKNHEEEVKGLQAQIASSGLTVEVDAPKSQDLAKIMADIRAQYDELARKNREELDKYWSQQIEESTTVVTTQSAEVGAAETTLTELRRTVQSLEIDLDSMRNLKASLENSLREVEARYALQMEQLNGILLHLESELAQTRAEGQRQAQEYEALLNIKVKLEAEIATYRRLLEDGEDFNLGDALDSSNSMQTIQKTTTRRIVDGKVVSETNDTKVLRH [S34A], the “effect of a mutation on the interaction” value is listed as “disrupting interaction strength”.
